Laboratory results from paper PMC8613188, “Structural insights into bifunctional thaumarchaeal crotonyl-CoA hydratase and 3-hydroxypropionyl-CoA dehydratase from Nitrosopumilus maritimus” (Scientific Reports, 2021).

Target: the molecule itself
Assay: crystal structure; apo form, 2.15 Å, space group P32, 6 monomers in the asymmetric unit; crystals from 0.2 M MgCl2, 0.1 M sodium citrate tribasic dihydrate pH 5, 10% w/v PEG, BME added; data at 100 K

B1: Nmar_1308 protein, bifunctional crotonyl-CoA hydratase (CCAH) and 3-hydroxypropionyl-CoA dehydratase (3HPD) from Nitrosopumilus maritimus SCM1 (enzyme)
chain: MSLVTTSTSDGICTVKINRPDKLNAMNTDVAKELIKTFEELNHNDDVKVIILTGEGEKAFSAGADIEYMSKISADESVEYAKTGQLVTATVELVKQPTIAAVNGFALGGGCELAMSCDIRIAADTAKLGQPEVTIGVPPGWGGTQRLMRIVGIAKAKELVYTGKMIKAEEAKEIGLVNHVVPLASLQEEALKMAQQIAGNSTMGVQMSKVAINKGRNADLDTGLGLEILAWRNCFTHPDRQERMTAFVNKSKK
notes: Protein encoded by Nmar_1308 of Nitrosopumilus maritimus SCM1; codon-optimized gene construct from Genscript in pET28a (NdeI/BamHI); 229-237 residues modeled per chain in PDB 7EUM; Homohexamer (dimer of trimers) in the crystal; source: E. coli BL21(Rosetta-2), purified (Ni-NTA, thrombin cleavage, reverse Ni-NTA, Superdex 200); not shown: His6, N-terminal, cleaved
stoichiometry N: 6
